Reference: article PMC2289895 (The Journal of Cell Biology, 1991)

Molecular target: the molecule itself
Test: SEC + co-IP

B1: NH2 epitope-tagged SIS1 (amino-terminal-tagged SIS1 protein) (natural protein)
chain: MVKETKLYDLLGVSPSANEQELKKGYRKAALKYHPDKPTGDTEKFKEISEAFEILNDPQKREIYDQYGLEAARSGGPSFGPGGPGGAGGAGGFPGGAGGFSGGHAFSNEDAFNIFSQFFGGSSPFGGADDSGFSFSSYPSGGGAGMGGMPGGMGGMHGGMGGMPGGFRSASSSPTYPEEETVQVNLPVSLEDLFVGKKKSFKIGRKGPHGASEKTQIDIQLKPGWKAGTKITYKNQGDYNPQTGRRKTLQFVIQEKSHPNFKRDGDDLIYTLPLSFKESLLGFSKTIQTIDGRTLPLSRVQPVQPSQTSTYPGQGMPTPKNPSQRGNLIVKYKVDYPISLNDAQKRAIDENF
stoichiometry N: 2
